Test results taken from the Human Domainome abundance scans (Beltran et al. 2025).
± gives the uncertainty stated by the source.

B1: Kinesin-like protein KIF16B, residues 1213 to 1273; numbered along this chain, Q96L93 (parent)
chain: ETWTVFRRYSRFREMHKTLKLKYAELAALEFPPKKLFGNKDERVIAERRSHLEKYLRDFFS

Variants of: B1
Assay: abundance fitness (aPCA) (normalised: wild type 0, dead -1); higher = more abundant; growth selection in yeast, the domain comes from the species named
Conditions: Homo sapiens

Variant	abundance fitness
ETWTVFRRYSRFREMHKTLPLKYAELAALEFPPKKLFGNKDERVIAERRSHLEKYLRDFFS [K20P]	-0.904 ± 0.21
ETWTVFRRYSRFREMHKTLQLKYAELAALEFPPKKLFGNKDERVIAERRSHLEKYLRDFFS [K20Q]	-0.411 ± 0.17
ETWTVFRRYSRFREMHKTLGLKYAELAALEFPPKKLFGNKDERVIAERRSHLEKYLRDFFS [K20G]	-0.676 ± 0.11
ETWTVFRRYSRFREMHKTLELKYAELAALEFPPKKLFGNKDERVIAERRSHLEKYLRDFFS [K20E]	-1.02 ± 0.19
ETWTVFRRYSRFREMHKTLLLKYAELAALEFPPKKLFGNKDERVIAERRSHLEKYLRDFFS [K20L]	-0.671 ± 0.097
ETWTVFRRYSRFREMHKTLVLKYAELAALEFPPKKLFGNKDERVIAERRSHLEKYLRDFFS [K20V]	-0.853 ± 0.096
ETWTVFRRYSRFREMHKTLMLKYAELAALEFPPKKLFGNKDERVIAERRSHLEKYLRDFFS [K20M]	-0.746 ± 0.15
ETWTVFRRYSRFREMHKTLWLKYAELAALEFPPKKLFGNKDERVIAERRSHLEKYLRDFFS [K20W]	-0.734 ± 0.18
ETWTVFRRYSRFREMHKTLDLKYAELAALEFPPKKLFGNKDERVIAERRSHLEKYLRDFFS [K20D]	-0.945 ± 0.24
ETWTVFRRYSRFREMHKTLRLKYAELAALEFPPKKLFGNKDERVIAERRSHLEKYLRDFFS [K20R]	-0.211 ± 0.059
ETWTVFRRYSRFREMHKTLALKYAELAALEFPPKKLFGNKDERVIAERRSHLEKYLRDFFS [K20A]	-0.632 ± 0.1
ETWTVFRRYSRFREMHKTLHLKYAELAALEFPPKKLFGNKDERVIAERRSHLEKYLRDFFS [K20H]	-0.421 ± 0.41
ETWTVFRRYSRFREMHKTLNLKYAELAALEFPPKKLFGNKDERVIAERRSHLEKYLRDFFS [K20N]	-1.01 ± 0.24
ETWTVFRRYSRFREMHKTLCLKYAELAALEFPPKKLFGNKDERVIAERRSHLEKYLRDFFS [K20C]	-0.574 ± 0.27
ETWTVFRRYSRFREMHKTLYLKYAELAALEFPPKKLFGNKDERVIAERRSHLEKYLRDFFS [K20Y]	-1 ± 0.26
ETWTVFRRYSRFREMHKNLKLKYAELAALEFPPKKLFGNKDERVIAERRSHLEKYLRDFFS [T18N]	-0.514 ± 0.23
ETWTVFRRYSRFREMHKRLKLKYAELAALEFPPKKLFGNKDERVIAERRSHLEKYLRDFFS [T18R]	-0.222 ± 0.086
ETWTVFRRYSRFREMHKLLKLKYAELAALEFPPKKLFGNKDERVIAERRSHLEKYLRDFFS [T18L]	-0.247 ± 0.076
ETWTVFRRYSRFREMHKKLKLKYAELAALEFPPKKLFGNKDERVIAERRSHLEKYLRDFFS [T18K]	-0.056 ± 0.13
ETWTVFRRYSRFREMHKVLKLKYAELAALEFPPKKLFGNKDERVIAERRSHLEKYLRDFFS [T18V]	-0.038 ± 0.1
ETWTVFRRYSRFREMHKYLKLKYAELAALEFPPKKLFGNKDERVIAERRSHLEKYLRDFFS [T18Y]	0.508 ± 0.29
ETWTVFRRYSRFREMHKSLKLKYAELAALEFPPKKLFGNKDERVIAERRSHLEKYLRDFFS [T18S]	-0.133 ± 0.076

Variant	abundance fitness
ETWTVFRRYSRFREMHKWLKLKYAELAALEFPPKKLFGNKDERVIAERRSHLEKYLRDFFS [T18W]	0.472 ± 0.073
ETWTVFRRYSRFREMHKHLKLKYAELAALEFPPKKLFGNKDERVIAERRSHLEKYLRDFFS [T18H]	-0.463 ± 0.37
ETWTVFRRYSRFREMHKMLKLKYAELAALEFPPKKLFGNKDERVIAERRSHLEKYLRDFFS [T18M]	-0.06 ± 0.067
ETWTVFRRYSRFREMHKTLKLPYAELAALEFPPKKLFGNKDERVIAERRSHLEKYLRDFFS [K22P]	-0.921 ± 0.16
ETWTVFRRYSRFREMHKTLKLIYAELAALEFPPKKLFGNKDERVIAERRSHLEKYLRDFFS [K22I]	0.069 ± 0.095
ETWTVFRRYSRFREMHKTLKLDYAELAALEFPPKKLFGNKDERVIAERRSHLEKYLRDFFS [K22D]	-0.907 ± 0.37
ETWTVFRRYSRFREMHKTLKLQYAELAALEFPPKKLFGNKDERVIAERRSHLEKYLRDFFS [K22Q]	-0.828 ± 0.16
ETWTVFRRYSRFREMHKTLKLWYAELAALEFPPKKLFGNKDERVIAERRSHLEKYLRDFFS [K22W]	0.28 ± 0.078
ETWTVFRRYSRFREMHKTLKLVYAELAALEFPPKKLFGNKDERVIAERRSHLEKYLRDFFS [K22V]	0.03 ± 0.059
ETWTVFRRYSRFREMHKTLKLSYAELAALEFPPKKLFGNKDERVIAERRSHLEKYLRDFFS [K22S]	-1.01 ± 0.22
ETWTVFRRYSRFREMHKTLKLMYAELAALEFPPKKLFGNKDERVIAERRSHLEKYLRDFFS [K22M]	-0.153 ± 0.1
ETWTVFRRYSRFREMHKTLKLGYAELAALEFPPKKLFGNKDERVIAERRSHLEKYLRDFFS [K22G]	-0.454 ± 0.072
ETWTVFRRYSRFREMHKTLKLTYAELAALEFPPKKLFGNKDERVIAERRSHLEKYLRDFFS [K22T]	-0.207 ± 0.12
ETWTVFRRYSRFREMHKTLKLCYAELAALEFPPKKLFGNKDERVIAERRSHLEKYLRDFFS [K22C]	-0.222 ± 0.12
ETWTVFRRYSRFREMHKTLKLLYAELAALEFPPKKLFGNKDERVIAERRSHLEKYLRDFFS [K22L]	0.127 ± 0.055
ETWTVFRRYSRFREMHKTLKLRYAELAALEFPPKKLFGNKDERVIAERRSHLEKYLRDFFS [K22R]	-0.354 ± 0.071
ETWTVFRRYSRFREMHKTLKLYYAELAALEFPPKKLFGNKDERVIAERRSHLEKYLRDFFS [K22Y]	-0.354 ± 0.28
ETWTVFRRYSRFREMHKTLKLAYAELAALEFPPKKLFGNKDERVIAERRSHLEKYLRDFFS [K22A]	-0.168 ± 0.09
ETWTVFRRYSRFREMHKTLKLEYAELAALEFPPKKLFGNKDERVIAERRSHLEKYLRDFFS [K22E]	-0.77 ± 0.3
ETWTVFRRYSRFREMHKTLKLKCAELAALEFPPKKLFGNKDERVIAERRSHLEKYLRDFFS [Y23C]	0.167 ± 0.078
ETWTVFRRYSRFREMHKTLKLKQAELAALEFPPKKLFGNKDERVIAERRSHLEKYLRDFFS [Y23Q]	-0.393 ± 0.099
